± gives the uncertainty stated by the source.

The data set is described as follows: amyloid nucleation score (Sup35N fusion, yeast selection) (log enrichment); library NNK3; higher = more nucleation; inactive = no reads after selection. The essentials: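 The nucleation score equals the log enrichment of output over input reads from DiMSum, centred on the mode score of non-aggregating sequences. It was computed only for sequences with 100 or more input reads. The reads came from Illumina sequencing of plasmid inserts from psi-negative yeast expressing Sup35N fused to peptides of 20 random codons, induced with 100 μM copper sulfate for 24 hours and grown 7 days at 30°C without adenine and uracil.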
As to NCIECRTDTYW, the amyloid nucleation score entry was “inactive”.
In the case of ERFRGMDRHVGVVWYDFV, the amyloid nucleation score entry is “inactive”.
In turn, VCIPYMVVVFISSIP showed an amyloid nucleation score of 1.72 ± 0.11.
On to ASIHMFVLYRWSFG, for which the amyloid nucleation score amounted to 0.013 ± 0.75.
With KYVLSKI, the amyloid nucleation score entry was “inactive”.
For the substance RRMRFCKTSYEYLCNYAAPK, the amyloid nucleation score entry is “inactive”.
Regarding SSVDSSFANCCVISKRNHML, the amyloid nucleation score result was “inactive”.
In turn, FNVTWKRLRIGRVGMKQKLS registered an amyloid nucleation score of 0.336 ± 0.77.
The value for NNSTRLIWWCMVKMRYNHCE was “inactive”; that for FNSILIVSLHLFSGFDSMR was 1.86 ± 0.093.
Consider CLATN, for which the amyloid nucleation score entry is “inactive”.
To SLCDSVGSKSVF belongs “inactive”; to FRYAMSYVGGMGSSINALIW, “inactive”; to PWCVKIHRWVLYWSYKLSIS, “inactive”.
To RRVSHLFLRTCCPSWTYYHL belongs “inactive”; to KIFRIYICDCELYHTNGMWA, 1.56 ± 0.1.
Regarding YYLNKVVSIVNRLFVAFAPC, the amyloid nucleation score result was “inactive”.
Take LLAVLALVGLC: the amyloid nucleation score result was “inactive”.
In the case of GCNREGTYSRPVLTATNGG, the amyloid nucleation score is -0.152 ± 0.93.
Consider ELDCELMIALFLLWIVHANG, for which the amyloid nucleation score was -0.657 ± 0.93.
In the case of ANFQWE, the amyloid nucleation score result is “inactive”.
Consider AEYQPFRQRHVL, for which the amyloid nucleation score entry is “inactive”.
YAGQDEFFMVTVYIKPNDLC came in with an amyloid nucleation score of 1.85 ± 0.085.
As for RCIYTMVWVTNVNMVRRTGA, the amyloid nucleation score was determined as 1.69 ± 0.084.
Take PQADLVRFAMCRRAMNLVPW: the amyloid nucleation score result was “inactive”.
In the case of SLDIKPSMRCGRRCVRGRST, the amyloid nucleation score entry was “inactive”.
As for SYISNP, the amyloid nucleation score entry is “inactive”.
LSYLFFKPFWA displayed an amyloid nucleation score of 0.357 ± 0.74.
With DFCMVVHCIKFMGLCRGGDV, the amyloid nucleation score is 1.02 ± 0.17.
For YGETAMRRSLTSLYNHMSLN, the amyloid nucleation score entry was “inactive”.
Consider DLNMGYKFLISKYSWPVYPM, for which the amyloid nucleation score entry is “inactive”.
Consider SRMSGLWD, for which the amyloid nucleation score result is “inactive”.
Consider SDGVGQLDSDVHSGGGDNRQ, for which the amyloid nucleation score result is “inactive”.
To DGLKNYRWYRFNTLDDGLAG belongs “inactive”.
As to INVVSEFGFGLQSTFRSDLV, the amyloid nucleation score entry was “inactive”.
RLRGVGIIVGGASQSSSQLR: the amyloid nucleation score result is “inactive”.
With SVSNPRNRT, the amyloid nucleation score result is “inactive”.
Regarding LLVANG, the amyloid nucleation score entry was “inactive”.
In turn, STCRWLFNNA showed an amyloid nucleation score of 0.257 ± 0.16.
On to LNSYSLNWRRCMGVQHSLYP, for which the amyloid nucleation score entry was “inactive”.
As for IRCRQNPGSHVIRYFCCRRS, the amyloid nucleation score result is “inactive”.
Turning to ADVDCFTVNLVYSRYAFVTT, the amyloid nucleation score entry is “inactive”.
As for VSYGPA, the amyloid nucleation score entry is “inactive”.
Turning to RQLTLSRITNLSLK, the amyloid nucleation score entry was “inactive”.
As for FVGTCGMMSALFLHSSPSFV, the amyloid nucleation score result was “inactive”.
The value for MELSGSIMRIEMLYFFMRHK was “inactive”; that for IAEDIRARPSVWDLMRSSAI was “inactive”.
Turning to MIYYMLWTYWALPKPWNEYI, the amyloid nucleation score was 0.971 ± 0.16.
To WGSRHKIVCELGLPFYVLEG belongs “inactive”; to PITDFTSNISNSRDPLQVRG, “inactive”; to GFIVSRERLNVMVLFSVYW, “inactive”.
With HGFMI, the amyloid nucleation score result was “inactive”.
The value for DWRAVLLGITSFA was “inactive”; that for GSKYMQRHLNTI was “inactive”; that for KHMSHRCILMLSPYSDRNIM was “inactive”.
With MNRMCVLLVNFCVDTD, the amyloid nucleation score came to 1.9 ± 0.06.
Regarding FCPPADGRVTGTCDLFLTNS, the amyloid nucleation score result was “inactive”.
For the substance VNFWMMRHAGCCKVHNKLSV, the amyloid nucleation score result was “inactive”.
As for LKFEVVMVLFSTIC, the amyloid nucleation score result is “inactive”.
EPVFCMWLDMGLGPNDCRMA: the amyloid nucleation score entry is “inactive”.
On to SESSNTELLSVLYIYAVWYL, for which the amyloid nucleation score result was “inactive”.
As to LLYYFYTFTQGR, the amyloid nucleation score was -0.148 ± 0.43.
For WHKKLGYTSFNRKLGFMASG, the amyloid nucleation score is 0.101 ± 0.45.
Substance HISRYEITVGCLIFRLLTRE gave an amyloid nucleation score of 2.46 ± 0.054.
In the case of YIYVIGWGNVLCGI, the amyloid nucleation score turned out to be 2.22 ± 0.079.
The value for RGDMMGLSTENTLLLYDVGR was “inactive”; that for SLCLVSLLCFSFRCNDGKWR was 1.38 ± 0.084.
To MAVLHSLFVKVQLMTSNFS belongs “inactive”; to ALNSLYTFMDRNNRELECGL, -0.688 ± 0.88; to SNESLWVSLIICFVTHWFQI, “inactive”.
Turning to WYGVVDVDW, the amyloid nucleation score result was “inactive”.
As to LQFDYLMIYLVQFSVLWVCL, the amyloid nucleation score entry was “inactive”.
As for SDIMNDH, the amyloid nucleation score entry is “inactive”.
The value for GSWLNSYVELTCVFFGSFYM was “inactive”.
For the substance AFVSPYR, the amyloid nucleation score entry was “inactive”.
Turning to RYSRSKIG, the amyloid nucleation score entry was “inactive”.
In turn, SLLRFSLGSCWTFSPKGNYL came in with an amyloid nucleation score of 1.87 ± 0.085.
Regarding MYGPMVWVDLYTCKTHRGAS, the amyloid nucleation score result is “inactive”.
As to RVMMSAACHLILCWNWPKWK, the amyloid nucleation score result is “inactive”.
FVHHYIWRVNL gave an amyloid nucleation score of 0.712 ± 0.36.
Regarding GAGTGQWLDSFGVEIHHPRS, the amyloid nucleation score result was “inactive”.
Take IWRDLGRLIQLFWNEIYHVN: the amyloid nucleation score entry was “inactive”.
Take SSDDFSWTIRMRRSEFTSHG: the amyloid nucleation score result is “inactive”.
Substance WVCMVNSRRSCIRNS returned an amyloid nucleation score of 0.381 ± 0.75.
KRWTQINYFDWRLLRFATRS: the amyloid nucleation score entry was “inactive”.
The value for KLYNLFWNVETMVERLLLVA was “inactive”; that for SSTGSLIPQPAFSYFCTATP was “inactive”; that for WYCVAEYGHFKCPSRKYVFG was “inactive”.
On to WFYMSRDGYEAVKRLTKLGK, for which the amyloid nucleation score result is “inactive”.
The value for SYLCVATWSCPHYVGFSQHI was “inactive”; that for FADVGTEFSCQEVNMKTHPS was “inactive”; that for CCKSVKFKSLPARN was 0.725 ± 0.24.
With YSRTDSQGMTNEMVNLGVDV, the amyloid nucleation score result was “inactive”.
SITRWFHTVMSIFKFYFEFD: the amyloid nucleation score result was “inactive”.
Regarding VVDNRNLSTCFYFRCVDWCQ, the amyloid nucleation score entry was “inactive”.
The value for DMLAYADMLHNFFNSSVHFW was “inactive”; that for PVISMHIVVLCGKQKKTMSP was 0.594 ± 0.23; that for TFFSYSRTALGATYYSLIIC was “inactive”.
RSEVRR came in with an amyloid nucleation score of -0.013 ± 0.51.
ITIMSDQETSHVWLVDRTLP registered an amyloid nucleation score of 0.298 ± 0.17.
Take LVLWMVDTSFAGSVDVSEMA: the amyloid nucleation score result was “inactive”.
Turning to YYLSLHR, the amyloid nucleation score result is “inactive”.
Consider AFIFGCHNGTFKYGKYTCRG, for which the amyloid nucleation score result is “inactive”.
Consider LNYEIWNISRFRTFFTGVSA, for which the amyloid nucleation score is -0.332 ± 0.73.
As to TTRLNFENVNVTLLNYKSMG, the amyloid nucleation score was 1.19 ± 0.069.
GDSFCFQLGVMCINHVRWY showed an amyloid nucleation score of 1.78 ± 0.09.
As to RLFMGRS, the amyloid nucleation score result is “inactive”.
INFSCLLLKHLFRWVRPYLS: the amyloid nucleation score result was “inactive”.
For the substance PQLLVSYYL, the amyloid nucleation score entry was “inactive”.
Consider KTIFSDVFYLRALWCSLNRG, for which the amyloid nucleation score entry was “inactive”.
Regarding IIAPRLY, the amyloid nucleation score result is “inactive”.
Substance QASIVSTG gave an amyloid nucleation score of -0.926 ± 2.4.
QQEMCTLFFRN: the amyloid nucleation score result was “inactive”.
For the substance FFTSTLLSRPNVPNIYSISR, the amyloid nucleation score result is “inactive”.
With YMCGSGCF, the amyloid nucleation score entry is “inactive”.
Consider MWFHLSYMAIFNGVSMQDVC, for which the amyloid nucleation score result is “inactive”.
With RSFKWNSECILWVSMLFSM, the amyloid nucleation score entry is “inactive”.
Take CWHCVIDAGFLSQYVRVFYS: the amyloid nucleation score result was “inactive”.
MIYAFVGYGVGTSGGVARES: the amyloid nucleation score result is “inactive”.
On to ISIFWSIEGSNYLHLILHQG, for which the amyloid nucleation score entry is “inactive”.
For the substance SRILRLRVSSSHVERYFKLF, the amyloid nucleation score result was “inactive”.
The value for VFPFSSFFKFLQRSWCGRDE was 1.22 ± 0.12; that for FFLIDYIYWVGIFNYSLILV was “inactive”; that for TWSGQGHR was “inactive”.
For the substance MPIGTSSYFFSQKICHYTSR, the amyloid nucleation score is 1.77 ± 0.09.
Regarding CQLLHMELDNARRCEIKKPA, the amyloid nucleation score result was “inactive”.
As to DRHSTYCLAS, the amyloid nucleation score entry was “inactive”.
On to YWSAVHEDYHTASMMEPLWW, for which the amyloid nucleation score entry is “inactive”.
Regarding GFYAE, the amyloid nucleation score result was “inactive”.
The substance VFEAAALVCNCGTWDRGLND displayed an amyloid nucleation score of 1.79 ± 0.1.
YSLNGAY: the amyloid nucleation score entry was “inactive”.
On to RPRTRNRRSSISWAKAL, for which the amyloid nucleation score entry is “inactive”.
